From patent US20200240995

B1: Dealocase-1 (protein)
chain: KPRVLVLTGAGISAESGIRTFRAADGLWEEHRVEDVSTPEGFDRDPELVQAFWNAWRRQLQQPEIQPNAAHLALAKLQDALGDRFLLVTQNVDNLHERAGNTNVIHMHGELLKVRCSQSGQVLDWTGDVTPEDKCHCCQFPAPLRPHVVWFGEMPLGMDEIYMALSMADIFIAIGTSGHVYPAAGFVHEAKLHGAHTVELNLEPSQVGNEFAEKYYGPASQVVPEFVEKLLKGLKAGSIA
B2: Dealocase-2 (protein)
chain: KPRVLVLTGAGISAESGIRTFRAADGLWEEHRVEDVGTPEGFDRDPELVQAFYNAGRRQLQQPEIQPNAAHLALAKLQDALGDRFLLVTQNVDNLHERAGNTNVIHMHGELLKVRCSQSGQVLDWTGDVTPEDKCHCCQFPAPLRPHVVWFGEMPLGMDEIYMALSMADIFIAIGTSGHVYPAAGFVHEAKLHGAHTVELNLEPSQVGNEFAEKYYGPASQVVPEFVEKLLKGLKAGSIA
B3: Dealocase-3 (protein)
chain: KPRVLVLTGAGISAESGIRTFRAADGLWEEHRVEDVATPEGFDRDPELVQAFYNARRRQLQQPEIQPNAAHLALAKLQDALGDRFLLVTQNSDNLHERAGNTNVIHMHGELLKVRCSQSGQVLDWTGDVTPEDKCHCCQFPAPLRPHLVWFGEMPLGMDEIYMALSMADIFIAIGTSGHVYPAAGFVHEAKLHGAHTVELNLEPSQVGNEFAEKYYGPASQVVPEFVEKLLKGLKAGSIA
B4: Decrotonylase-1 (protein)
chain: KPRVLVLTGAGISAESGIRTFRAADGLWEEHRVEDVRTPEGFDRDPELVQAFGNATRRQLQQPEIQPNAAHLALAKLQDALGDRFLLVTQNRDNLHERAGNTNVIHMHGELLKVRCSQSGQVLDWTGDVTPEDKCHCCQFPAPLRPHLVWFGEMPLGMDEIYMALSMADIFIAIGTSGHVYPAAGFVHEAKLHGAHTVELNLEPSQVGNEFAEKYYGPASQVVPEFVEKLLKGLKAGSIA
B5: Debocylase-1 (protein)
chain: KPRVLVLTGAGISAESGIRTFRAADGLWEEHRVEDVATPEGFDRDPELVQAFYNARRRQLQQPEIQPNAAHLALAKLQDALGDRFLLVTQNVDNLHERAGNTNVIHMHGELLKVRCSQSGQVLDWTGDVTPEDKCHCCQFPAPLRPHLVWFGEMPLGMDEIYMALSMADIFIAIGTSGHVYPAAGFVHEAKLHGAHTVELNLEPSQVGNEFAEKYYGPASQVVPEFVEKLLKGLKAGSIA

What was measured:
[1] = target: Dual luciferase reporter (DLR) with N(ε)-crotonyl-lysine at K529 of the Firefly enzyme
Chain of Dual luciferase reporter (DLR) with N(ε)-crotonyl-lysine at K529 of the Firefly enzyme (chain, as listed by the source): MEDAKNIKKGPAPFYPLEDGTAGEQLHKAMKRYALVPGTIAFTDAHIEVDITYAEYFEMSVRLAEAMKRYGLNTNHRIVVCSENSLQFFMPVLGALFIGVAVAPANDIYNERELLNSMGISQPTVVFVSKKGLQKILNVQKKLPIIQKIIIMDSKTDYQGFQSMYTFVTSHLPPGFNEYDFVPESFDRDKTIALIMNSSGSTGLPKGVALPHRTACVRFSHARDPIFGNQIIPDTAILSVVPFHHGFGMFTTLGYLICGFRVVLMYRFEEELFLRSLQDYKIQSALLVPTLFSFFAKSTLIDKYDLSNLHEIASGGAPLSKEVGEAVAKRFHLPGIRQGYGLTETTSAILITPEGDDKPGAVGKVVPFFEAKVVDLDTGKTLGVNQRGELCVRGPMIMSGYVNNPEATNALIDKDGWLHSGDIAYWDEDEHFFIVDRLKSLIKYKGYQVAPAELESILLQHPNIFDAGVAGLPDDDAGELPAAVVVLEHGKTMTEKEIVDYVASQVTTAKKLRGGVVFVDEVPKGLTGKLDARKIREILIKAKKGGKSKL

[2] = target: Dual luciferase reporter (DLR) with N(ε)-tert.-butyl-oxycarbonyl-lysine at K529 of the Firefly enzyme
Chain of Dual luciferase reporter (DLR) with N(ε)-tert.-butyl-oxycarbonyl-lysine at K529 of the Firefly enzyme (chain, as listed by the source): as above

[3] = target: Dual luciferase reporter (DLR) with N(ε)-acetyl-lysine at K529 of the Firefly enzyme
Chain of Dual luciferase reporter (DLR) with N(ε)-acetyl-lysine at K529 of the Firefly enzyme (chain, as listed by the source): as above

[4] = target: Dual luciferase reporter (DLR) with N(ε)-allyl-oxycarbonyl-lysine at K529 of the Firefly enzyme
Chain of Dual luciferase reporter (DLR) with N(ε)-allyl-oxycarbonyl-lysine at K529 of the Firefly enzyme (chain, as listed by the source): as above

Protein	DLR activity [rel. to wild-type] (rel. to wild-type) [1]	DLR activity [rel. to wild-type] (rel. to wild-type) [2]	DLR activity [rel. to wild-type] (rel. to wild-type) [3]	DLR activity [rel. to wild-type] (rel. to wild-type) [4]
B1	5.73	2.88	0.49	10.8
B2	2.11	0.77	1.19	10.2
B3	1	0.65	0.35	6
B4	0.1	0.04	0	0.02
B5	2.9	8.65	1.25	8.35
